Key:
SBS#75114 (synthetic) = assay: cell_activity; settings: KRAB fusion mRNA, C9 line, isoform-specific RT-qPCR
SBS#75115 (synthetic) = assay: cell_activity; settings: KRAB fusion mRNA, C9 line, isoform-specific RT-qPCR; microarray: only C9orf72 repressed

In the case of “CACGCCCCGGCCCCGGCCCCGGCCCCTA (double strand) [C9orf72 reverse site, frame i]”, the activity (SBS#75114 (synthetic)) is reported as greater than 70 % repression and the activity (SBS#75115 (synthetic)) is reported as greater than 70 % repression.
